Our source for the stoichiometry N values is publication PMC2830092.

This assay concerns the target FLAG-Pen-2 (human) (UniProt Q9NZ42). Nature of the assay: STEM mass measurement.
UniProt Q9NZ42, sequence (Q9NZ42 whole entry): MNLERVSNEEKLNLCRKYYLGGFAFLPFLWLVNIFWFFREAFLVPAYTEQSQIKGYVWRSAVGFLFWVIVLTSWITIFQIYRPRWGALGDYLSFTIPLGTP

On to “Aph1α2-HA (from UniProt Q96BI3 1-265) (natural protein)”, for which the stoichiometry N is 1.
